The record followed here is publication PMC5483177 (Cell reports, 2016).

To fix the notation:
B1: CPS-6(H148A) (residues 63-305), His-tagged (enzyme, C. elegans, UniProt Q95NM6 63-305, looked up)
chain: PSRSAEIMKHGYPGFTNVRTYEDFVLSYDYKTRTAHWVCEHLTPERLKHAEGVDRKLCEFKPDITFPQKFLSQNTDYKCSGFDRGALAAAGNHRKSQLAVDQTFYLSNMSPQVGRGFNRDKWNDLEMHCRRVAKKMINSYIITGPLYLPKLEGDGKKYIKYQVIGDNNVAVPTHFFKVALFEVTPGKFELESYILPNAVIEDTVEISKFHVPLDAVERSAGLEIFARLDPKSIVKENGAKKGG
B2: wild-type CPS-6 (residues 63-305), His-tagged (enzyme, C. elegans, UniProt Q95NM6 63-305, looked up)
chain: B1 chain with A86H
B3: WAH-1 (residues 214 to 700), His-tagged (domain or fragment, C. elegans, UniProt Q9U229 214-700, looked up)
chain: SEQQSMKPSESTEENTTTTSADGLLHCEYVIIGSGTAAYYASLSIRAKQAEAKVLMIGEEPELPYNRPPLSKELWWYGDETSATKLAYTPLSGKKRDIFYEVDGFFVSPEDLPKAVHGGVALLRGRKAVKICEEDKKVILEDGTTIGYDKLLIATGVRPKKEQVFEEASEEAKQKITYFHYPADFKRVERGLADKSVQKVTIIGNGLLASELSYSIKRKYGENVEVHQVFEEKYPAEDILPEHIAQKSIEAIRKGGVDVRAEQKVEGVRKCCKNVVLKLSDGSELRTDLVVVATGEEPNSEIIEASGLKIDEKLGGVRADKCLKVGENVWAAGAIATFEDGVLGARRVSSWENAQISGRLAGENMATAAADGKSEGKAFWYQPSFFTKFAPHLHINAIGKCDSSLETVSVHAEPDKDTPLEKAVVFYKSKEDGSIVGVLLLNVFGPSLDVARRIIDDRKKVDEYKEIAKLFPLYDPVKSDEDDAKSA

Data set [1] deals with the molecule itself. Description: SEC. In general terms: Size exclusion chromatography separates by hydrodynamic size, large species first.
In data set [2] the target is B3. Description: other fluorescence titration.
Data set [3] has as its target B1. The data set can be described thus: other fluorescence titration.
Data set [4] deals with the molecule itself. Description: SEC. The source holds these as a separate data set.

Changes are numbered by the printed parent chain. Names and notes keep the numbering of the source. Where two headings read alike, the source gives them in different places.

On to B1, for which the stoichiometry N (as a rule, a count of units in the complex or per binding partner) in data set [1] worked out at 2. The Kd (in general, the free concentration of one partner at which half of the binding sites on the other are occupied at equilibrium, for simple one-to-one binding) in data set [2] worked out at 69.8 ± 2.8 nM.
As to B2, the “stoichiometry N” value in data set [1] amounted to 2.
Regarding B3, the entries for the “stoichiometry N” value in data set [3] and in data set [4] were 1 and 2, respectively.
